The target in experiment [1] is T1, human recombinant Hsp90α (human, UniProt P07900 1-732).
T1 construct: Heat shock protein 90 alpha (Hsp90α), human, recombinant; also called heat shock protein 90; source: bought: Stressgen Bioreagents
Put plainly: SPR; competition; Hsp90 or Hsp70 (1 μM) preincubated with TPR peptide (14, 140 or 700 μM) passed over Hop, FKBP5 or PP5 immobilised on CM5 chip; signal without peptide = 100% binding; 25°C, HBS-EP buffer pH 7.4. The settings on record: both partners purified.

In experiment [2] the target is T1, human recombinant Hsp90α. Put plainly: SPR; Biacore 3000; biotin-TPR peptide immobilised on streptavidin (SA) chip; Hsp90 or Hsp70 (0.3, 1 or 2 μM) as analyte, 30 μl/min, 25°C, HBS-EP buffer pH 7.4. To be noted: both partners purified.

Ends that are not written are not given here.

B1: human recombinant PP5 (natural protein, UniProt P53041 1-499, looked up)
chain: MAMAEGERTECAEPPRDEPPADGALKRAEELKTQANDYFKAKDYENAIKFYSQAIELNPSNAIYYGNRSLAYLRTECYGYALGDATRAIELDKKYIKGYYRRAASNMALGKFRAALRDYETVVKVKPHDKDAKMKYQECNKIVKQKAFERAIAGDEHKRSVVDSLDIESMTIEDEYSGPKLEDGKVTISFMKELMQWYKDQKKLHRKCAYQILVQVKEVLSKLSTLVETTLKETEKITVCGDTHGQFYDLLNIFELNGLPSETNPYIFNGDFVDRGSFSVEVILTLFGFKLLYPDHFHLLRGNHETDNMNQIYGFEGEVKAKYTAQMYELFSEVFEWLPLAQCINGKVLIMHGGLFSEDGVTLDDIRKIERNRQPPDSGPMCDLLWSDPQPQNGRSISKRGVSCQFGPDVTKAFLEENNLDYIIRSHEVKAEGYEVAHGGRCVTVFSAPNYCDQMGNKASYIHLQGSDLRPQFHQFTAVPHPNVKPMAYANTLLQLGMM
notes: PP5 (protein phosphatase 5), human, recombinant; Abnova recombinant proteins often carry a GST tag (surmise); source: bought: Abnova
Consider B1, for which the binding result with human recombinant Hsp90α [1] was “binds”.

B2: TPR peptide (KAYARIGNSYFK) (peptide)
peptide: KAYARIGNSYFK
notes: also called designed TPR peptide; source: synthetic peptide
Take B2: the binding result with human recombinant Hsp90α [1] is on record as “binds”.

B3: Biotin-conjugated TPR peptide (peptide)
peptide: KAYARIGNSYFK
modifications: also: biotin-conjugated, position not given here
notes: Immobilised on a streptavidin sensor chip by its biotin; also called biotin-TPR; immobilized TPR peptide; source: synthetic peptide
For orientation: Kd means the free concentration of one partner at which half of the binding sites on the other are occupied at equilibrium, for simple one-to-one binding. Turning to B3, the Kd in the experiment with human recombinant Hsp90α [2] came out at 1.42 µM.

These data come from publication PMC3032679 (Journal of Translational Medicine, 2011).
